# Measured values taken from the supplement of paper PMC10567573.
# B1: MLL5 (parent)
# chain: DCMGIDRQHIPDTYLCERCQPRNL
# B2: MNAT1 (parent)
# chain: SLREYNDFLEEVEEIVFNLTNNVD
# Variants of: B1
# Experiment: protein stability index of a GFP-peptide fusion (GPS, HEK-293T) (PSI 1-6); higher = more stable
# Details: c terminus: a fixed tail appended
# 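Also: lentivirally expressed fusions sorted by FACS into six bins by GFP to DsRed ratio, PSI derived from sequencing read proportions per bin multiplied by bin number.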
row,Variant,protein stability index
1,I5Y,2.61
2,I5H,3.99
3,I5W,2.88
4,I5E,3.57
5,I5M,3.1
6,I5F,2.85
7,I5G,3.5
8,I5T,3.69
9,I5K,3.48
10,I5D,2.87
11,I5N,3.67
12,I5R,3.37
13,I5S,2.54
14,I5A,3.7
15,I5Q,3.37
16,I5V,3.16
17,I5C,3.73
18,I5P,3.27
19,M3N,2.88
20,M3G,2.94
21,M3A,2.48
22,M3K,3.63
23,M3H,2.81
24,M3V,2.9
25,M3I,2.77
26,M3F,2.57

row,Variant,protein stability index
1,M3D,3.75
2,M3T,2.47
3,M3R,2.61
4,M3C,3.14
5,M3Y,3.03
6,M3Q,2.48
7,M3P,3.32
8,M3L,2.89
9,M3S,3.66
10,M3W,3.54
11,M3E,4.56
12,D1Y,1.95
13,D1M,1.91
14,D1I,2.17
15,D1W,1.4
16,D1T,2.43
17,D1P,3.3
18,D1K,2.58
19,D1R,2.42
20,D1N,2.21
21,D1Q,2.41
22,D1L,2.21
23,D1S,3.17
24,D1E,2.63
25,D1F,1.89
26,D1A,2.69

row,Variant,protein stability index
1,D1C,3.63
2,D1V,2.86
3,D1H,2.73
4,G4Q,2.88
5,G4L,2.63
6,G4K,3.19
7,G4C,3.73
8,G4V,2.38
9,G4T,3.23
10,G4W,1.78
11,G4M,2.88
12,G4R,2.48
13,G4H,3.98
14,G4D,3.11
15,G4A,2.23
16,G4P,2.55
17,G4S,3.45
18,G4N,2.19
19,G4I,2.41
20,G4Y,2.49
21,G4F,2.37
22,G4E,3.23
23,C2L,2.73
24,C2A,3.09
25,C2V,2.77
26,C2W,2.21

row,Variant,protein stability index
1,C2R,3.38
2,C2E,3.79
3,C2P,4.03
4,C2H,3.36
5,C2T,3.21
6,C2G,2.7
7,C2M,2.89
8,C2D,3.08
9,C2F,2.1
10,C2S,2.63
11,C2I,2.57
12,C2Q,3.48
13,C2Y,2.53
14,C2N,3.41
15,C2K,2.99
16,D6G,2.78
17,D6H,3.19
18,D6M,1.88
19,D6A,3.27
20,D6I,1.56
21,D6K,2.59
22,D6E,2.78
23,D6C,3.29
24,D6F,1.74
25,D6L,2.31

# Variants of: B2
# Experiment: as above
# Details: c terminus: a fixed tail appended
row,Variant,protein stability index
1,T20P,3.19
2,T20K,2.41
3,T20Q,2.37
4,T20G,2.31
5,T20H,2.25
6,N18Y,1.4
7,N18M,1.84
8,N18D,2.36
9,Y5P,3.81
10,Y5K,4.55
11,V23P,3.05
12,V23D,2.92
13,N21L,1.81
14,L2Q,2.72
15,L2E,3.35
16,N6K,3.15
17,N6P,3.08
18,E10V,2.25
19,E10K,1.91
20,E14V,1.61
21,E14Y,2.6
22,E14D,2.88

row,Variant,protein stability index
1,E13A,1.77
2,E13S,1.74
3,E13C,2.34
4,E13P,3.69
5,E4Y,1.39
6,E4Q,2.27
7,E4L,2.5
8,R3Q,2.94
9,R3I,1.69
10,R3D,2.32
11,R3Y,1.86
12,R3M,1.91
13,R3V,1.61
14,R3L,1.64
15,E11Q,1.72
16,E11K,2.07
17,E11F,1.49
18,E11Y,2.23
19,E11P,3.1
20,L19M,2.89
21,V16E,4.36
22,V16R,3.04

row,Variant,protein stability index
1,D7P,3
2,D7H,1.31
3,D7G,1.75
4,D7N,2.49
5,S1W,2.11
6,S1Q,2.81
7,S1L,1.87
8,F17Y,1.91
9,F17Q,2.78
10,I15G,4.71
11,I15L,1.9
12,I15Q,3.87
13,V12A,3.22
14,V12W,1.87
15,V12M,1.74
16,V12C,2.9
17,V12E,4.49
18,L9F,3.05
19,L9V,3.77
20,N22R,2.09
